{"source": "patent US20210070807A1", "about": "(MOREHOUSE SCHOOL OF MEDICINE, published 2021)", "binders": {"B1": {"name": "SMRwt-CPP peptide (peptide)", "peptide": "VGFPVAAVGFPVGRKKRRQRRRPPQ"}}, "biological_target": "mortalin (UniProt P38646 47-679)", "sequence (P38646 47-679 limits assumed)": "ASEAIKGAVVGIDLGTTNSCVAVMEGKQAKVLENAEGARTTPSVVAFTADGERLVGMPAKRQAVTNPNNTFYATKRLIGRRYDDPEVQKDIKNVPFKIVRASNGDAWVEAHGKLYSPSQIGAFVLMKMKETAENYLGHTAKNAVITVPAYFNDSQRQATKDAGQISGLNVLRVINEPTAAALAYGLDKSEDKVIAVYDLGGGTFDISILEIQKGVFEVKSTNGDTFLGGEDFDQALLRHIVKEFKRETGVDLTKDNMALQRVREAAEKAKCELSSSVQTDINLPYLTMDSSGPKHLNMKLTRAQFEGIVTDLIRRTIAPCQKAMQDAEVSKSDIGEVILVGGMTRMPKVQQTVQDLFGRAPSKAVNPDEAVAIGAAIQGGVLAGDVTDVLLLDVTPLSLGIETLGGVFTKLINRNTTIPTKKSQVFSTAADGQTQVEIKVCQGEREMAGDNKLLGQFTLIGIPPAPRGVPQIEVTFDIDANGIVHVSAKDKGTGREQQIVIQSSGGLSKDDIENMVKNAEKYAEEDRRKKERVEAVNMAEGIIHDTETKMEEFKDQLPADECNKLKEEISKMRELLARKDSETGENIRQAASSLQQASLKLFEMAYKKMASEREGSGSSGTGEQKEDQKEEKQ", "assay": "cell-based or functional assay", "data": [{"binder": "B1", "values": [{"measurement": "IC50 of proliferation, MTT assay, K562 cells, 24 hours", "value": 907, "unit": "nM/mL"}, {"measurement": "IC50 of proliferation, MTT assay, MCF-7 cells, 24 hours", "value": 180, "unit": "nM/mL"}, {"measurement": "IC50 of proliferation, MTT assay, MDA-MB-231 cells, 24 hours", "value": 476, "unit": "nM/mL"}]}]}
